Results from paper PMC12145424, “Structural insights into tRNA recognition of the human FTSJ1-THADA complex” (Communications Biology, 2025).

Molecular target: T1, Human THADA (FLAG- and streptavidin-binding-sequence-tagged, co-expressed with FTSJ1) (human, UniProt Q6YHU6 1-1953)
T1 construct: THADA, human; gene PCR-amplified and cloned into a modified pcDNA3.4 vector; no TEV cleavage step is described; also called Trm732 (yeast name); not shown: FLAG, N-terminal, kept
Test: SEC; FTSJ1 and THADA co-expressed in HEK293F, purified on anti-FLAG beads, then HiLoad 16/600 Superdex 200pg in 20 mM Tris-HCl pH 7.5, 150 mM NaCl, 2 mM DTT; fractions analysed by SDS-PAGE
Conditions: both partners purified

T1 sequence (Q6YHU6 whole entry): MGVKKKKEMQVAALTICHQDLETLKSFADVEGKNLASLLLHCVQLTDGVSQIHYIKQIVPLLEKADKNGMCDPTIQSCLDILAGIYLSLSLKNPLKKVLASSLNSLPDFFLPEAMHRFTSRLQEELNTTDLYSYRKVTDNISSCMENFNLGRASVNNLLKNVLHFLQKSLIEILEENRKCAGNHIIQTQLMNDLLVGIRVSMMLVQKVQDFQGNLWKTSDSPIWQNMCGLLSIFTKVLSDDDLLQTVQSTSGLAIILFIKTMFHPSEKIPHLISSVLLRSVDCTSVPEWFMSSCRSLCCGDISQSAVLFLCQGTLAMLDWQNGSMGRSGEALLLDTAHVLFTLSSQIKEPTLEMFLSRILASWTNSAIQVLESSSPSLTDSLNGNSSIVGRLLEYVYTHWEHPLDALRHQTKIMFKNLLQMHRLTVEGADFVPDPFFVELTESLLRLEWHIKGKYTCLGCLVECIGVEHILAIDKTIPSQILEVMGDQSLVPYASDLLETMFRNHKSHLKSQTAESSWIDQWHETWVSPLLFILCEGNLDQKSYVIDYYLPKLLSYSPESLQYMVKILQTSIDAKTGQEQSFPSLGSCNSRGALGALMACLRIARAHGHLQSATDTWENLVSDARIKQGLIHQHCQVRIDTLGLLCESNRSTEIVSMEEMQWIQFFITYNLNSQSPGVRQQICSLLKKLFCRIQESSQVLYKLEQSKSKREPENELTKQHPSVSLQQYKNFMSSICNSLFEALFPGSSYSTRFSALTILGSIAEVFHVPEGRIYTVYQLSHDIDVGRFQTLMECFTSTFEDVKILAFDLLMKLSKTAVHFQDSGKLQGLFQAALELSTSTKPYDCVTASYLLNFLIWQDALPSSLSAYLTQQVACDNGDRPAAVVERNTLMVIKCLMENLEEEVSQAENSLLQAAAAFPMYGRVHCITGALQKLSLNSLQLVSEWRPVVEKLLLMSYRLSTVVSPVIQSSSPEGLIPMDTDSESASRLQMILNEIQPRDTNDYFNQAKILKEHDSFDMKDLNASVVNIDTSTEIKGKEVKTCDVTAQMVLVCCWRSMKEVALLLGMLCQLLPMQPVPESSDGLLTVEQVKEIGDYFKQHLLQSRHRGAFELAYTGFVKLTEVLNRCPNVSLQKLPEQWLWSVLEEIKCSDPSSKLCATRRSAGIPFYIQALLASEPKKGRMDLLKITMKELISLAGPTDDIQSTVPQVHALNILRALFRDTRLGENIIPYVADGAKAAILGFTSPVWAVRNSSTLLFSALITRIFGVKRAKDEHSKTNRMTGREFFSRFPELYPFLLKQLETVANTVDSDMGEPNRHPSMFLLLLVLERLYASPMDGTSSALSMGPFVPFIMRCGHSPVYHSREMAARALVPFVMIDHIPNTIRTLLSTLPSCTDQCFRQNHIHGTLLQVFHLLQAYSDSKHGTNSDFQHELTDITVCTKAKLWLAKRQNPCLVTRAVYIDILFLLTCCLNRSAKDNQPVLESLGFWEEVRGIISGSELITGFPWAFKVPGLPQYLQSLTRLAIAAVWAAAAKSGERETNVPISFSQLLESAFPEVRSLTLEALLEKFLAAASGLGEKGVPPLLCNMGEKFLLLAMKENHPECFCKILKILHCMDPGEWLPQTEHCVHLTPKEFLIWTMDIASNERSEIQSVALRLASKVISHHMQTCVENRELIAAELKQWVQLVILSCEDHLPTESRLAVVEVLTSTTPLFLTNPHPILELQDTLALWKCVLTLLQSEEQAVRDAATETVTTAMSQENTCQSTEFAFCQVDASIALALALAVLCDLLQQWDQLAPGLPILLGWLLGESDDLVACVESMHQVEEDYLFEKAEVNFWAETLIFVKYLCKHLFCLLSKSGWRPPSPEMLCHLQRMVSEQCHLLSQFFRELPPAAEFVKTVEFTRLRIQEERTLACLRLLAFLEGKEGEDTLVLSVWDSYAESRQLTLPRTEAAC

- binding result: binds
B1: Human FTSJ1 (FLAG-tagged, co-expressed with THADA) (enzyme)
chain: MGRTSKDKRDVYYRLAKENGWRARSAFKLLQLDKEFQLFQGVTRAVDLCAAPGSWSQVLSQKIGGQGSGHVVAVDLQAMAPLPGVVQIQGDITQLSTAKEIIQHFKGCPADLVVCDGAPDVTGLHDVDEYMQAQLLLAALNIATHVLKPGGCFVAKIFRGRDVTLLYSQLQVFFSSVLCAKPRSSRNSSIEAFAVCQGYDPPEGFIPDLSKPLLDHSYDPDFNQLDGPTRIIVPFVTCGDLSSYDSDRSYPLDLEGGSEYKYTPPTQPPISPPYQEACTLKRKGQLAKEIRPQDCPISRVDTFPQPLAAPQCHTLLAPEMEDNEMSCSP
notes: FTSJ1, human; gene PCR-amplified and cloned into a modified pcDNA3.4 vector; no TEV cleavage step is described in the purification; also called Trm7 (yeast name); not shown: FLAG, N-terminal, kept
